Experimental data: patent publication US20250129167A1

Molecular target: PD-L1 on CHO-PD-L1 cells (Promega blockade system) (UniProt Q9NZQ7)
Sequence (Q9NZQ7 19-290 limits assumed): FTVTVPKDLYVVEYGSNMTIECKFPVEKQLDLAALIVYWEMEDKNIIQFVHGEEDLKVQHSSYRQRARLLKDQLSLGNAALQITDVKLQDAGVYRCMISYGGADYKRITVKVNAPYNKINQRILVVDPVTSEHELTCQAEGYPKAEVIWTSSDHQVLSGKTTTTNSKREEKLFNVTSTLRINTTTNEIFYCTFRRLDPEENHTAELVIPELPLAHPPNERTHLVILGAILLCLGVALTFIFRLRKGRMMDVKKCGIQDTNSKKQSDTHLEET

With Tecentriq (antibody) the EC50 (read off the curve); luciferase fold induction, Promega CHO-PD-L1 / PD-1 Jurkat assay was 0.1 nM.
